From the supplement of paper PMC9112550, “Optimization of the antimicrobial peptide Bac7 by deep mutational scanning” (BMC Biology, 2022)

test system: Escherichia coli TOP10; assay: shrunken log2 fold change of peptide-encoding DNA abundance (4.5 h post-induction vs induction); higher = less antimicrobial activity (less host growth inhibition); conditions: time post-induction: 4.5 h; library: site-saturation at positions 5, 18, 19, 20
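Note: peptides expressed intracellularly from a pBAD plasmid library in pooled LB shake-flask culture, induced with 0.3% L-arabinose, DNA abundance read by NGS, three biological replicates, DESeq2 with apeglm shrinkage.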

Sequence	shrunken log2 fold change
RRIRTRPPRLPRPRPRPCKQPRP	-0.254
RRIRDRPPRLPRPRPRPLRSPRP	0.294
RRIRLRPPRLPRPRPRPCSSPRP	-0.157
RRIRPRPPRLPRPRPRPPLEPRP	0.179
RRIRCRPPRLPRPRPRPNEVPRP	-0.153
RRIRMRPPRLPRPRPRPQMMPRP	0.443
RRIRTRPPRLPRPRPRPREDPRP	-0.147
RRIRKRPPRLPRPRPRPPQGPRP	0.469
RRIRCRPPRLPRPRPRPIREPRP	-0.0298
RRIRTRPPRLPRPRPRPHLRPRP	-0.264
RRIRKRPPRLPRPRPRPEKAPRP	0.0283
RRIRFRPPRLPRPRPRPNNDPRP	-0.673
RRIRTRPPRLPRPRPRPPCHPRP	-0.164
RRIRFRPPRLPRPRPRPGSKPRP	-0.43
RRIRMRPPRLPRPRPRPAEDPRP	1.93
RRIRTRPPRLPRPRPRPAWYPRP	-0.172
RRIRSRPPRLPRPRPRPDLTPRP	0.0442
RRIRARPPRLPRPRPRPYNQPRP	-0.306
RRIRYRPPRLPRPRPRPTIEPRP	-0.391
RRIRDRPPRLPRPRPRPILLPRP	-0.28
RRIRGRPPRLPRPRPRPKADPRP	1.29
RRIRDRPPRLPRPRPRPQKAPRP	0.0864
RRIRGRPPRLPRPRPRPHLMPRP	-0.0148
RRIRYRPPRLPRPRPRPTAEPRP	0.0226
RRIRTRPPRLPRPRPRPCMNPRP	-1.43

Sequence	shrunken log2 fold change
RRIRERPPRLPRPRPRPHVDPRP	-0.00242
RRIRYRPPRLPRPRPRPRMDPRP	-0.0437
RRIRGRPPRLPRPRPRPQRLPRP	0.329
RRIRCRPPRLPRPRPRPMQWPRP	0.226
RRIRFRPPRLPRPRPRPRDEPRP	0.278
RRIRKRPPRLPRPRPRPIMFPRP	-0.21
RRIRVRPPRLPRPRPRPNKRPRP	-0.158
RRIRCRPPRLPRPRPRPFKCPRP	-0.232
RRIRYRPPRLPRPRPRPSLPPRP	-0.546
RRIRPRPPRLPRPRPRPADVPRP	0.0118
RRIRRRPPRLPRPRPRPQLAPRP	-0.0216
RRIRFRPPRLPRPRPRPDDFPRP	0.0834
RRIRGRPPRLPRPRPRPATMPRP	0.44
RRIRRRPPRLPRPRPRPHEIPRP	-0.0745
RRIRSRPPRLPRPRPRPFEAPRP	0.14
RRIRCRPPRLPRPRPRPLIAPRP	-0.0852
RRIRSRPPRLPRPRPRPCRCPRP	-0.358
RRIRFRPPRLPRPRPRPQTMPRP	-0.144
RRIRLRPPRLPRPRPRPVAIPRP	0.0902
RRIRERPPRLPRPRPRPEVLPRP	0.28
RRIRPRPPRLPRPRPRPGHIPRP	-0.196
RRIRVRPPRLPRPRPRPRTQPRP	0.0785
RRIRKRPPRLPRPRPRPDSRPRP	-0.188
RRIRRRPPRLPRPRPRPDIWPRP	0.418
RRIRPRPPRLPRPRPRPNKPPRP	-0.00463

Sequence	shrunken log2 fold change
RRIRGRPPRLPRPRPRPLQRPRP	0.762
RRIRERPPRLPRPRPRPPMKPRP	-0.418
RRIRVRPPRLPRPRPRPFHFPRP	-0.238
RRIRVRPPRLPRPRPRPLERPRP	-0.0607
RRIRRRPPRLPRPRPRPVYCPRP	-0.0322
RRIRLRPPRLPRPRPRPTEEPRP	-0.0651
RRIRDRPPRLPRPRPRPDLAPRP	0.814
RRIRGRPPRLPRPRPRPWVCPRP	0.0844
RRIRMRPPRLPRPRPRPKKFPRP	0.358
RRIRERPPRLPRPRPRPQTTPRP	0.0104
RRIRDRPPRLPRPRPRPKVVPRP	-0.01
RRIRIRPPRLPRPRPRPARHPRP	0.0869
RRIRWRPPRLPRPRPRPHFPPRP	0.064
RRIRSRPPRLPRPRPRPIALPRP	-0.385
RRIRCRPPRLPRPRPRPTCFPRP	0.152
RRIRMRPPRLPRPRPRPCKHPRP	0.0196
RRIRCRPPRLPRPRPRPVLHPRP	-0.199
RRIRSRPPRLPRPRPRPMVTPRP	-0.134
RRIRARPPRLPRPRPRPMYPPRP	-0.79
RRIRPRPPRLPRPRPRPAYMPRP	-0.231
RRIRVRPPRLPRPRPRPDFDPRP	0.0753
RRIRTRPPRLPRPRPRPHFDPRP	-0.385
RRIRQRPPRLPRPRPRPWLTPRP	-0.13
RRIRGRPPRLPRPRPRPDKSPRP	0.18
RRIRMRPPRLPRPRPRPMHHPRP	0.0123

Sequence	shrunken log2 fold change
RRIRNRPPRLPRPRPRPMGWPRP	-0.00822
RRIRPRPPRLPRPRPRPQGEPRP	0.208
RRIRPRPPRLPRPRPRPWMSPRP	-0.166
RRIRHRPPRLPRPRPRPWGGPRP	0.39
RRIRTRPPRLPRPRPRPQDAPRP	-0.0107
RRIRIRPPRLPRPRPRPCMYPRP	-0.573
RRIRGRPPRLPRPRPRPVSEPRP	0.797
RRIRDRPPRLPRPRPRPSKFPRP	-0.105
RRIRDRPPRLPRPRPRPHQMPRP	0.00713
RRIRQRPPRLPRPRPRPYPAPRP	-0.289
RRIRDRPPRLPRPRPRPQAAPRP	0.0147
RRIRHRPPRLPRPRPRPISDPRP	-0.179
RRIRKRPPRLPRPRPRPYIAPRP	-0.293
RRIRHRPPRLPRPRPRPWVFPRP	0.139
RRIRERPPRLPRPRPRPFCLPRP	-0.558
RRIRYRPPRLPRPRPRPECHPRP	0.0154
RRIRCRPPRLPRPRPRPNTAPRP	-0.22
RRIRARPPRLPRPRPRPKEVPRP	-0.0076
RRIRGRPPRLPRPRPRPWRRPRP	0.054
RRIRGRPPRLPRPRPRPQKTPRP	-0.0351
RRIRVRPPRLPRPRPRPLEKPRP	0.158
RRIRERPPRLPRPRPRPSMMPRP	-0.257
RRIRSRPPRLPRPRPRPDPLPRP	0.0174
RRIRVRPPRLPRPRPRPIYCPRP	-0.113
RRIRLRPPRLPRPRPRPIYLPRP	-0.654

Sequence	shrunken log2 fold change
RRIRNRPPRLPRPRPRPWDNPRP	-0.0545
RRIRFRPPRLPRPRPRPQKIPRP	-0.299
RRIRARPPRLPRPRPRPCCWPRP	0.245
RRIRKRPPRLPRPRPRPMREPRP	1.4
RRIRKRPPRLPRPRPRPADWPRP	0.666
RRIRLRPPRLPRPRPRPSTSPRP	-0.0196
RRIRRRPPRLPRPRPRPAPAPRP	1.1
RRIRARPPRLPRPRPRPVEHPRP	0.068
RRIRDRPPRLPRPRPRPICPPRP	0.106
RRIRGRPPRLPRPRPRPNCDPRP	0.382
RRIRVRPPRLPRPRPRPLNRPRP	-0.328
RRIRDRPPRLPRPRPRPRVNPRP	-0.149
RRIRHRPPRLPRPRPRPWNKPRP	-0.111
RRIRARPPRLPRPRPRPPYTPRP	0.16
RRIRIRPPRLPRPRPRPHGLPRP	-0.00134
RRIRKRPPRLPRPRPRPRAKPRP	0.173
RRIRERPPRLPRPRPRPDISPRP	0.0621
RRIRNRPPRLPRPRPRPCDWPRP	-0.0698
RRIRERPPRLPRPRPRPCIGPRP	-0.479
RRIRQRPPRLPRPRPRPHCHPRP	-0.164
RRIRVRPPRLPRPRPRPNFFPRP	0.0488
RRIRARPPRLPRPRPRPSAYPRP	0.0396
RRIRMRPPRLPRPRPRPFIWPRP	0.0163
RRIRDRPPRLPRPRPRPSIYPRP	-0.313
RRIRWRPPRLPRPRPRPLDIPRP	1.52
